From the supplement of paper PMC9112550, “Optimization of the antimicrobial peptide Bac7 by deep mutational scanning” (BMC Biology, 2022)

The sequences below were run on Escherichia coli TOP10 (assay: shrunken log2 fold change of peptide-encoding DNA abundance (4.5 h post-induction vs induction); higher = less antimicrobial activity (less host growth inhibition)). Conditions: time post-induction: 4.5 h; library: site-saturation at positions 5, 18, 19, 20.
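Also: peptides expressed intracellularly from a pBAD plasmid library in pooled LB shake-flask culture, induced with 0.3% L-arabinose, DNA abundance read by NGS, three biological replicates, DESeq2 with apeglm shrinkage.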

In order of rising “shrunken log2 fold change” value:
1. RRIRPRPPRLPRPRPRPYLLPRP  -1.57
2. RRIRLRPPRLPRPRPRPWFKPRP  -0.86
3. RRIRCRPPRLPRPRPRPQNVPRP  -0.749
4. RRIRFRPPRLPRPRPRPMNKPRP  -0.65
5. RRIRCRPPRLPRPRPRPHWNPRP  -0.551
6. RRIRWRPPRLPRPRPRPNNNPRP  -0.514
7. RRIRFRPPRLPRPRPRPCTYPRP  -0.384
8. RRIRSRPPRLPRPRPRPTNVPRP  -0.358
9. RRIRKRPPRLPRPRPRPWYCPRP  -0.339
10. RRIRFRPPRLPRPRPRPQHPPRP  -0.326
11. RRIRTRPPRLPRPRPRPSTRPRP  -0.296
12. RRIRYRPPRLPRPRPRPAQWPRP  -0.294
13. RRIRSRPPRLPRPRPRPAGKPRP  -0.284
14. RRIRNRPPRLPRPRPRPKCKPRP  -0.261
15. RRIRPRPPRLPRPRPRPWWIPRP  -0.243
16. RRIRNRPPRLPRPRPRPWAPPRP  -0.23
17. RRIRVRPPRLPRPRPRPILAPRP  -0.224
18. RRIRFRPPRLPRPRPRPGEDPRP  -0.224
19. RRIRSRPPRLPRPRPRPSECPRP  -0.211
20. RRIRLRPPRLPRPRPRPFNMPRP  -0.189
21. RRIRYRPPRLPRPRPRPITKPRP  -0.184
22. RRIRTRPPRLPRPRPRPWHPPRP  -0.179
23. RRIRNRPPRLPRPRPRPQSDPRP  -0.174
24. RRIRVRPPRLPRPRPRPVTDPRP  -0.171
25. RRIRSRPPRLPRPRPRPPMIPRP  -0.17
26. RRIRSRPPRLPRPRPRPEYPPRP  -0.128
27. RRIRMRPPRLPRPRPRPFHRPRP  -0.114
28. RRIRDRPPRLPRPRPRPNWNPRP  -0.1
29. RRIRPRPPRLPRPRPRPDRDPRP  -0.0875
30. RRIRHRPPRLPRPRPRPLSTPRP  -0.0859
31. RRIRWRPPRLPRPRPRPSTYPRP  -0.0575
32. RRIRMRPPRLPRPRPRPQSIPRP  -0.0553
33. RRIRLRPPRLPRPRPRPTMQPRP  -0.0477
34. RRIRVRPPRLPRPRPRPDHFPRP  -0.0417
35. RRIRIRPPRLPRPRPRPIMCPRP  -0.0373
36. RRIRSRPPRLPRPRPRPCVGPRP  -0.0336
37. RRIRWRPPRLPRPRPRPEILPRP  -0.0318
38. RRIRKRPPRLPRPRPRPCYIPRP  -0.0235
39. RRIRPRPPRLPRPRPRPMVDPRP  -0.019
40. RRIRTRPPRLPRPRPRPAYCPRP  -0.0119
41. RRIRMRPPRLPRPRPRPQSGPRP  -0.0103
42. RRIRERPPRLPRPRPRPFVVPRP  -0.0043
43. RRIRLRPPRLPRPRPRPMPDPRP  -0.00255
44. RRIRKRPPRLPRPRPRPGWEPRP  -0.00146
45. RRIRERPPRLPRPRPRPTTCPRP  0.0164
46. RRIRTRPPRLPRPRPRPVAVPRP  0.0298
47. RRIRHRPPRLPRPRPRPMGGPRP  0.0348
48. RRIRIRPPRLPRPRPRPRFRPRP  0.0756
49. RRIRKRPPRLPRPRPRPSRDPRP  0.0856
50. RRIRERPPRLPRPRPRPGFDPRP  0.0961
51. RRIRWRPPRLPRPRPRPPMWPRP  0.108
52. RRIRARPPRLPRPRPRPGIMPRP  0.113
53. RRIRKRPPRLPRPRPRPQYPPRP  0.131
54. RRIRPRPPRLPRPRPRPEKCPRP  0.156
55. RRIRPRPPRLPRPRPRPGLKPRP  0.211
56. RRIRVRPPRLPRPRPRPIGWPRP  0.213
57. RRIRTRPPRLPRPRPRPAPEPRP  0.24
58. RRIRKRPPRLPRPRPRPEDHPRP  0.247
59. RRIRSRPPRLPRPRPRPSAPPRP  0.287
60. RRIRSRPPRLPRPRPRPTCTPRP  0.342
61. RRIRGRPPRLPRPRPRPRDKPRP  0.373
62. RRIRGRPPRLPRPRPRPTKLPRP  0.38
63. RRIRCRPPRLPRPRPRPVNWPRP  0.393
64. RRIRARPPRLPRPRPRPQVEPRP  0.399
65. RRIRSRPPRLPRPRPRPEFAPRP  0.413
66. RRIRMRPPRLPRPRPRPRCMPRP  0.511
67. RRIRNRPPRLPRPRPRPAQIPRP  0.603
68. RRIRKRPPRLPRPRPRPLWRPRP  0.609
69. RRIRCRPPRLPRPRPRPCAIPRP  0.651
70. RRIRGRPPRLPRPRPRPDIAPRP  0.782
71. RRIRSRPPRLPRPRPRPGPTPRP  0.788
72. RRIRGRPPRLPRPRPRPPNWPRP  0.862
73. RRIRKRPPRLPRPRPRPAACPRP  0.987
74. RRIRRRPPRLPRPRPRPPRKPRP  1.5
75. RRIRDRPPRLPRPRPRPPGPPRP  1.9
